Assay results reported in PMC10728891.

Assays:
human insulin (human) [1] = target: human insulin (human) (UniProt P01308); experiment: circular dichroism, dissociation kinetics after dilution; 600 μM insulin, 250 μM ZnCl2, 25 mM m-cresol, 25 mM tris pH 8 (R6 hexamer), diluted 150-fold into 25 mM tris pH 8.0; ellipticity at 222 nm over 120 s at 25 °C; monoexponential fit; hexamer to monomers
human insulin (human) [2] = target: human insulin (human) (UniProt P01308); experiment: AUC; sedimentation velocity, 300 μM insulin, […] m-cresol, […] ZnCl2, 25 mM tris buffer pH 8.0, interference optics

A t1/2 of hexamer dissociation (human insulin (human) [1]) of 18.4 s and a stoichiometry N (human insulin (human) [2]) of 6 were found for “human insulin (from UniProt P01308 25-54; P01308 90-110) (natural protein)” in this work.
